Experimental data: US20040001835A1, “Prevention or treatment of cancer using integrin alphavbeta3 antagonists in combination with other agents” (MedImmune, Inc., priority 2002, published 2004)
“Also recorded” adds a separate entry of the source.

Tests used:
Test in all cases: Flow cytometric analysis of antibody binding to cell lines
Rat αvβ3 = molecular target: T1, Rat αvβ3 (Rattus norvegicus, UniProt Q8R2H2); conditions: Rat RG2 glioma; 5×10^5 cells, 0.5 μg antibody; vs isotype matched control antibody
T1 construct: endogenous in cells; host or cells: RG2 glioma
T1 sequence (Q8R2H2 26-787): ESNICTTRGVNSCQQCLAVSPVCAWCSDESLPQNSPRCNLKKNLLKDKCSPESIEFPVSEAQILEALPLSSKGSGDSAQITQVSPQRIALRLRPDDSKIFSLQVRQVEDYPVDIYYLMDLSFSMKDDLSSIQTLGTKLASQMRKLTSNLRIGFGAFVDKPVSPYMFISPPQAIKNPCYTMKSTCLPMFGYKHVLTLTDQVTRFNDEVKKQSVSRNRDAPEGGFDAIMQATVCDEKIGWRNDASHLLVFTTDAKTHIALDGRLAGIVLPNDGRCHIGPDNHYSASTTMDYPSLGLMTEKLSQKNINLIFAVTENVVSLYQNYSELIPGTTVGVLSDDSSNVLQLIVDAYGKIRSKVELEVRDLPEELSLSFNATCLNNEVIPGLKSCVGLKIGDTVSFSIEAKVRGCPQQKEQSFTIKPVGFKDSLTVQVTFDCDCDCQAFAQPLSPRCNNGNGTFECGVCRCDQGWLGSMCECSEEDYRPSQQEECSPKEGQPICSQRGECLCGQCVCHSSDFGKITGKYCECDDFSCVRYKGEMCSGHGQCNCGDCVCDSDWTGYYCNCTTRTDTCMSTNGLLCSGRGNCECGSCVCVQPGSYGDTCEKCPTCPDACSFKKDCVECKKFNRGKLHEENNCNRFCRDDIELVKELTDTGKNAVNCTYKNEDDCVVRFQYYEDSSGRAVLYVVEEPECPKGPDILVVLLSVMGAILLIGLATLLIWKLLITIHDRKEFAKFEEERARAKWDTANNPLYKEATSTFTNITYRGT
Protocol: (§1) FIG. 2. Flow cytometric analysis of antibody binding to tumor cell lines. […] Rat αvβ3 was not recognized by any of the three antibodies but was detected by the anti-rat αvβ3 control antibody.
(§2) Cells (5×10^5) were incubated with 0.5 μg of antibody and bound antibody was detected with a phycoerythrin-labeled secondary antibody. Mean channel fluorescence results are expressed as fold increase over an isotype matched control antibody. The mouse anti-rat β3 antibody F11 was included for as a positive control for the rat cell line RG2. HMVEC, human microvascular endothelial cells; ND, not done.

human αvβ3 = molecular target: T2, human αvβ3 (Homo sapiens, UniProt P05106); conditions: for Fold Increase Over Control (mean channel fluorescence): 5×10^5 cells, 0.5 μg antibody, vs isotype matched control antibody
T2 construct: endogenous in cells; host or cells: M21 melanoma, HMVEC, HUVEC
T2 sequence (P05106 27-788): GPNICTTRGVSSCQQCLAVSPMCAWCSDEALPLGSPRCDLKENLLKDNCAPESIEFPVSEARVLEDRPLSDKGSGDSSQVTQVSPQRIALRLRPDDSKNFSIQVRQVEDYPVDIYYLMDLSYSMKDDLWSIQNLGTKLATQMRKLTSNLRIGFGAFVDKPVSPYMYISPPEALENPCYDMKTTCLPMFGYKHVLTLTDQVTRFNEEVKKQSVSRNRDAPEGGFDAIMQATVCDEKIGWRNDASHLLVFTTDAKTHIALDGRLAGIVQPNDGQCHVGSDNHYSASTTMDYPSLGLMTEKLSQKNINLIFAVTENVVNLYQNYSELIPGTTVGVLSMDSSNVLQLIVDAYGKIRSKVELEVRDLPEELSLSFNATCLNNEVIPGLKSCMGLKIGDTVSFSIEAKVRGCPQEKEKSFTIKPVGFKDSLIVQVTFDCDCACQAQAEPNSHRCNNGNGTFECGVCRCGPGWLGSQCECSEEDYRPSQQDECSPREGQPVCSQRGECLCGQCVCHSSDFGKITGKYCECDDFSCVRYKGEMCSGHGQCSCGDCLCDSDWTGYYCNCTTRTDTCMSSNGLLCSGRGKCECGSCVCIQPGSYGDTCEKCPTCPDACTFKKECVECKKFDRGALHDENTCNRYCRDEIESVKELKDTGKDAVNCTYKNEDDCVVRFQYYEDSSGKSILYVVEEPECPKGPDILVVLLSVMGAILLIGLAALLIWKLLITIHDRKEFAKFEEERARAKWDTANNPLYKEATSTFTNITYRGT
T2 sequence (P06756 31-889 partner limits assumed): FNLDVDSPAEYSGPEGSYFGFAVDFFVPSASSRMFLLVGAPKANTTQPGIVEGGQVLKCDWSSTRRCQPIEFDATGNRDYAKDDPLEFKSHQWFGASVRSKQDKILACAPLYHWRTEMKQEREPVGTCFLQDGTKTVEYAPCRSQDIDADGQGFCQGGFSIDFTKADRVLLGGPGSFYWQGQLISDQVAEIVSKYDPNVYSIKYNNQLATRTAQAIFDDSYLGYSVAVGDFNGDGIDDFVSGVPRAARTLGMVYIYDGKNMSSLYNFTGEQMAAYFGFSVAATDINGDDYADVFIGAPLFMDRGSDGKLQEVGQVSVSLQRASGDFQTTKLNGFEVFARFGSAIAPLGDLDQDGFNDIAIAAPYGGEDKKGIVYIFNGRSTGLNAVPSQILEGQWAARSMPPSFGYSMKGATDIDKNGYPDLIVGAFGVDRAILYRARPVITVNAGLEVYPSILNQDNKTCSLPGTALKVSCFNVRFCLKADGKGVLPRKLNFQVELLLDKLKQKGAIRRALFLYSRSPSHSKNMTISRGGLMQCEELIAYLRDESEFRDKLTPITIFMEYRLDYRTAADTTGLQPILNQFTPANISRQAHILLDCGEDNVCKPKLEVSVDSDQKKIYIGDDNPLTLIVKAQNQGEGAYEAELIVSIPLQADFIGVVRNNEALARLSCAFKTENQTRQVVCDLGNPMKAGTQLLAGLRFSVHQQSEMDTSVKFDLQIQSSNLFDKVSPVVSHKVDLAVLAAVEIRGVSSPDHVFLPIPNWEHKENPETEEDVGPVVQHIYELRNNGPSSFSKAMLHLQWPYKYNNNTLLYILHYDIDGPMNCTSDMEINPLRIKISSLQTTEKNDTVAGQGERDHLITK
T2 sequence (P06756 891-1048 partner limits assumed): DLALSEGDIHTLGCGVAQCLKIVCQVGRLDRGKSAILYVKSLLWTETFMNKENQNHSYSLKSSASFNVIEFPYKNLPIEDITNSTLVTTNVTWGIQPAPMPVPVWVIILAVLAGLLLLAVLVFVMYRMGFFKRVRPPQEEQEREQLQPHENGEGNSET
Protocol: as §1, §2

hamster αvβ3 = test system: hamster αvβ3
Protocol: as §1, §2

Rabbit αvβ3 = test system: Rabbit αvβ3
Protocol: as §1, §2

[1] = flow cytometry, tumor cell lines, FIG. 2

B1: Vitaxin®: humanized blocking monoclonal antibody that binds Integrin αVβ3 (MEDI-522, MedImmune); humanized and optimized version of LM609 (antibody, chains of the INN, looked up, V domains shown)
VH: QVQLVESGGGVVQPGRSLRLSCAASGFTFSSYDMSWVRQAPGKGLEWVAKVSSGGGSTYYLDTVQGRFTISRDNSKNTLYLQMNSLRAEDTAVYYCARHLHGSFASWGQGTTVTVSS
VL: EIVLTQSPATLSLSPGERATLSCQASQSISNFLHWYQQRPGQAPRLLIRYRSQSISGIPARFSGSGSGTDFTLTISSLEPEDFAVYYCQQSGSWPLTFGGGTKVEIK
Fold Increase Over Control (mean channel fluorescence) (Rat αvβ3): 0.95 fold | Fold Increase Over Control (mean channel fluorescence) (human αvβ3; Human HMVEC endothelial): 8.9 fold | Fold Increase Over Control (mean channel fluorescence) (human αvβ3; Human M21 melanoma): 73 fold | binding to human αvβ3 (in words) (human αvβ3; [1]): recognized; also recorded: capable of binding | Fold Increase Over Control (mean channel fluorescence) (hamster αvβ3; Hamster CCL-49 melanoma, 5×10^5 cells, 0.5 μg antibody, vs isotype matched control antibody): 12 fold | binding to hamster αvβ3 (in words) (hamster αvβ3; [1]): recognized; also recorded: capable of binding | Fold Increase Over Control (mean channel fluorescence) (Rabbit αvβ3; Rabbit VX7 carcinoma, 5×10^5 cells, 0.5 μg antibody, vs isotype matched control antibody): 17 fold | binding to rabbit αvβ3 (in words) (Rabbit αvβ3; [1]): recognized
